Data taken from US10421803 (dated 2019).

Target: HIV-1 YU2 gp120 (HIV-1, UniProt P35961)
Test: SPR, bivalent

Sequence of HIV-1 YU2 gp120 (P35961 32-671): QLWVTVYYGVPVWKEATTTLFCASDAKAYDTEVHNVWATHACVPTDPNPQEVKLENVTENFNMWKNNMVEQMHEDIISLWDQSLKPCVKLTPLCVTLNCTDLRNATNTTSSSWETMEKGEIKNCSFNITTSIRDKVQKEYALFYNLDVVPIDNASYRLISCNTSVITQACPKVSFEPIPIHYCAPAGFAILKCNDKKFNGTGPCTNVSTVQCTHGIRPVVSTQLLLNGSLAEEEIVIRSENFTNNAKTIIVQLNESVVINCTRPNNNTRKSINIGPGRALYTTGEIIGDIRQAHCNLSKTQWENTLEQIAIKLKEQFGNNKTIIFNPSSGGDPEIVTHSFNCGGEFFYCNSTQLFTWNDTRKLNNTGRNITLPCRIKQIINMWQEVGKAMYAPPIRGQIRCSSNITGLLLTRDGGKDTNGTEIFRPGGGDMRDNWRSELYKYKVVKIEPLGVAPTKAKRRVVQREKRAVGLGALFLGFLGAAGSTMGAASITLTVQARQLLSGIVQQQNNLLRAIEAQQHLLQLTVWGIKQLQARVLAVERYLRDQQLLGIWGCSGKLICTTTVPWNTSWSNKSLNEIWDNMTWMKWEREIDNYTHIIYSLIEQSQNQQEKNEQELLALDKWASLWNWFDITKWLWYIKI

B1: 8ANC195 IgG (antibody, V domains shown)
VH: QIHLVQSGTEVKKPGSSVTVSCKAYGVNTFGLYAVNWVRQAPGQSLEYIGQIWRWKSSASHHFRGRVLISAVDLTGSSPPISSLEIKNLTSDDTAVYFCTTTSTYDKWSGLHHDGVMAFSSWGQGTLISVSA
VL: DIQMTQSPSTLSASIGDTVRISCRASQSITGNWVAWYQQRPGKAPRLLIYRGAALLGGVPSRFSGSAAGTDFTLTIGNLQAEDFGTFYCQQYDTYPGTFGQGTKVEV
  Kd: 82 nM
